Legend:
[1] = biological target: T1, β-galactosidase (Sigma), biotinylated (Escherichia coli (strain K12), UniProt P00722 2-1024 = β-galactosidase, Biotinylated (sites not given); the native enzyme is a homotetramer, and one chain is given); experiment: method not stated
T1 construct: Immobilised on streptavidin-coated tubes or wells

[2] = biological target: T2, protein A (Sigma), biotinylated (UniProt P38507 37-477); experiment: protein-DNA complex captured on biotinylated protein in streptavidin-coated PCR tubes; co-captured DNA detected by PCR and gel
T2 construct: Immobilised on streptavidin-coated tubes; also called pA

[3] = biological target: T3, BSA (Sigma), biotinylated (UniProt P02769 25-607); experiment: as above
T3 construct: Negative control surface
T3 sequence (P02769 25-607 limits assumed): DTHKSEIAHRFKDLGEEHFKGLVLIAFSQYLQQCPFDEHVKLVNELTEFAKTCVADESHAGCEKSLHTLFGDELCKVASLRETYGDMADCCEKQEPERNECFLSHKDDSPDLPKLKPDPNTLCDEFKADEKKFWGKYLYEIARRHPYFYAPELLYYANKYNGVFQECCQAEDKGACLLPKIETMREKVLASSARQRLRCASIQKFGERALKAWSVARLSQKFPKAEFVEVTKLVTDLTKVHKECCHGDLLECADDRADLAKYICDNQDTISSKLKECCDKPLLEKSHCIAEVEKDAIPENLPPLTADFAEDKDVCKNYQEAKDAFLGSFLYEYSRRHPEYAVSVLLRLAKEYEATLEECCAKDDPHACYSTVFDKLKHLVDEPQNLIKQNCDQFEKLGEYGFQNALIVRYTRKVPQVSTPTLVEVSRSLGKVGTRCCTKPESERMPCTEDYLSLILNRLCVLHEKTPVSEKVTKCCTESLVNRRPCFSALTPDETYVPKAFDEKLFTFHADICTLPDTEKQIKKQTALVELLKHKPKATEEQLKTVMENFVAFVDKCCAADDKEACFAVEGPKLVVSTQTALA

[4] = biological target: T4, human TNF receptor, biotinylated (human, UniProt P19438 30-211, limits assumed, biotinylated); experiment: as above
T4 construct: Immobilised on streptavidin-coated tubes
T4 sequence (looked up): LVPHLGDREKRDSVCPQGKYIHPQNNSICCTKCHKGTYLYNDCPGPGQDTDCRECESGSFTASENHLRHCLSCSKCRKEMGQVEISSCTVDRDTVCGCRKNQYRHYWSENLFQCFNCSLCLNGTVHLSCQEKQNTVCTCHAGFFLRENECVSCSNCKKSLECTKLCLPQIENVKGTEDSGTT

T1 sequence (P00722 2-1024 limits assumed): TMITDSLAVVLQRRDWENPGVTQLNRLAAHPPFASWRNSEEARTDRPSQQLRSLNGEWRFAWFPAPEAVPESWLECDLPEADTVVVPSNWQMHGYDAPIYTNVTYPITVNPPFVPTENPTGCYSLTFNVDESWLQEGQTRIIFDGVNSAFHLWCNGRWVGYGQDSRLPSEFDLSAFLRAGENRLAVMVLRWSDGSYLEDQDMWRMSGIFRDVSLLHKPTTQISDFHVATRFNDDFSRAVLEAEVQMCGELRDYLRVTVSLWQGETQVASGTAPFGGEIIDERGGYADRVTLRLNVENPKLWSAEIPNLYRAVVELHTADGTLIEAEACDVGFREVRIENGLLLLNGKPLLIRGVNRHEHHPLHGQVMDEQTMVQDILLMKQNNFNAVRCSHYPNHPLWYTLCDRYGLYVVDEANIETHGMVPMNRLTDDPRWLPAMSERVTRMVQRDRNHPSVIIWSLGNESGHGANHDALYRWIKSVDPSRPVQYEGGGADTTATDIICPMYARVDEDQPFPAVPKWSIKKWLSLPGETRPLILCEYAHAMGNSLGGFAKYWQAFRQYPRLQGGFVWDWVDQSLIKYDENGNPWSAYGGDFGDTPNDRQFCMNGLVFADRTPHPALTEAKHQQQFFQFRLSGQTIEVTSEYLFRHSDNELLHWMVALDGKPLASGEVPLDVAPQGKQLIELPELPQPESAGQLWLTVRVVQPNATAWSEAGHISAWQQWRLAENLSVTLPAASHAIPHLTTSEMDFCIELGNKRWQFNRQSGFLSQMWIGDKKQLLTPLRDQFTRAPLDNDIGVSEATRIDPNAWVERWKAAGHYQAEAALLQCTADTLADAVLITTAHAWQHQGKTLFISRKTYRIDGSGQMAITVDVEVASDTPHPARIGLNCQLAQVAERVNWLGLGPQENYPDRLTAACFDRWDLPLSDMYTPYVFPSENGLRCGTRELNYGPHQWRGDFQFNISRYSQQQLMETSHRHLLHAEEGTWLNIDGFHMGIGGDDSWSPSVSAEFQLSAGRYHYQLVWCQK

B1: anti-β-galactosidase Vκ domain antibody clone E5 (other)
VL: DIQMTQSPSSLSASVGDRVTITCRASQSVSSYLNWYQQKPGKAPKLLIYLASRLQSGVPSRFSGSGSGTDFTLTISSLQPEDFATYYCQQNWWLPPTFGQGTKVEIK
notes: The Vκ single domain itself; also called Vκ(E5); Vk(E5)
Kd [1]: > 1 µM

B2: scArc expressed from pIE7aA, pIE7a2A, pIE7a3A or pIE7a4A (other)
chain: MGSTGGAAAKEAAAKEAAAKEAAAKELAAKEAAAKEAAAKEAAAKELAAGSGGGSGGGHMKGMSKMPQFNLRWPREVLDLVRKVAEENGRSVNSEIYQRVMESFKKEGRIGAGGGSGGGSGGGSGGGHMKGMSKMPQFNLRWPREVLDLVRKVAEENGRSVNSEIYQRVMESFKKEGRIGAGGGSGGGSYPYDVPDYA
notes: in vitro translated in the presence of 3F10 αHA mAb; also called scArc complex with DNA
binding result [2]: no binding
binding result [3]: no binding

B3: HA-tagged scArc repressor expressed from pIE2aA / pIE2a^2A-derived genetic elements (other)
chain: MGSTGGAAAGSGGGSGGGHMKGMSKMPQFNLRWPREVLDLVRKVAEENGRSVNSEIYQRVMESFKKEGRIGAGGGSGGGSGGGSGGGHMKGMSKMPQFNLRWPREVLDLVRKVAEENGRSVNSEIYQRVMESFKKEGRIGAGGGSGGGSYPYDVPDYA
notes: The same protein is encoded by pIE2A, pIE2aA and pIE2a^2A (they differ in the number of operators on the DNA); also called scArc-HA; pIE2-encoded scArc-HA
binding result [2]: no binding
binding result [4]: no binding
binding result [3]: no binding

B4: VH(DOM1h-10-27)-scArc fusion protein (pIE2aAVH(DOM1h-10-27)) (other)
chain: MAEVQLLESGGGLVQPGGSLRLSCAASGFTFEWYWMGWVRQAPGKGLEWVSAISGSGGSTYYADSVKGRFTISRDNSKNTLYLQMNSLRAEDAAVYYCAKVKLGGGPNFGYRGQGTLVTVSSAAGGGSGGGHMKGMSKMPQFNLRWPREVLDLVRKVAEENGRSVNSEIYQRVMESFKKEGRIGAGGGSGGGSGGGSGGGHMKGMSKMPQFNLRWPREVLDLVRKVAEENGRSVNSEIYQRVMESFKKEGRIGAGGGSGGGSYPYDVPDYA
notes: Human heavy chain VH domain antibody against human TNF receptor fused to scArc; in vitro translated, assayed as protein-DNA complex (one Arc operator), with the stabilising 3F10 mAb; also called VH(DOM1h-10-27) domain antibody fusion construct with scArc
binding result [3]: no binding

B5: HA-tagged scArc repressor expressed from pIE3A / pIE3aA-derived genetic elements (other)
chain: MSGSGGGSGGGHMKGMSKMPQFNLRWPREVLDLVRKVAEENGRSVNSEIYQRVMESFKKEGRIGAGGGSGGGSGGGSGGGHMKGMSKMPQFNLRWPREVLDLVRKVAEENGRSVNSEIYQRVMESFKKEGRIGAGGGSGGGSMGSTGGAAARSYPYDVPDYA
notes: In vitro translated; differs from the pIE2 form in that the MCS-encoded region lies between scArc and the HA tag; also called pIE3-derived scArc-HA; scArc-HA
binding result [3]: no binding

— patent publication US20090176209A1 (DOMANTIS, published 2009)
